From patent US20050182242A1, “Global analysis of protein activities using proteome chips” (priority 2001, published 2005)

B1: SDS22: yeast GST-HisX6 fusion protein on proteome chip (protein, UniProt P36047 1-338, looked up)
Protein phosphatase 1 …: MDKNSVNKDSEEKDERHKIEVVDDTNPDFITADSELTQDLPDDVEVIDLVHLKIKSLEDLNLYRFKNLKQLCLRQNLIESISEVEVLPHDKIVDLDFYDNKIKHISSNVNKLTKLTSLDLSFNKIKHIKNLENLTDLENLYFVQNSISKIENLSTLKSLKNLELGGNKVHSIEPDSFEGLSNLEEIWLGKNSIPRLINLHPLKNLKILSIQSNKLKKIENLEELTNLEELYLSHNFITKIEGLEKNLKLTTLDVTSNKITSLENLNHLSNLTDIWASFNKIDQSFESLGENLSALSRLETIYLEGNPIQLENKTSYRRKLTMNLPPSLQKIDATYIRG
modifications: GST-HisX6 tag
notes: yeast GST-HisX6 fusion protein on proteome chip
B2: BUD32: yeast GST-HisX6 fusion protein on proteome chip (protein, UniProt P53323 1-261, looked up)
EKC/KEOPS complex subunit …: MTQEFIDKVSSYLTPDVDIAPISQGAEAIVFTTTTHPYLPRAKDSHQKYIIKYRPPKRYRHPQIDQALTKHRTLNESRLLAKLYLIPGLCVPQLIACDPYNGFIWLEFLGEDLPGGHGFSNLKNFLWMHDQDPYSDLVATTLRKVGRQIGLLHWNDYCHGDLTSSNIVLVRDGARWTPHLIDFGLGSVSNLVEDKGVDLYVLERAILSTHSKHAEKYNAWIMEGFEEVYREQGAKGAKKLKEVTKRFEEVRLRGRKRSMLG
modifications: GST-His6 fusion tag
notes: as for B1
B3: APG1: yeast GST-HisX6 fusion protein on proteome chip (protein, UniProt P53104 1-897, looked up)
Serine/threonine-protein …: MGDIKNKDHTTSVNHNLMASAGNYTAEKEIGKGSFATVYRGHLTSDKSQHVAIKEVSRAKLKNKKLLENLEIEIAILKKIKHPHIVGLIDCERTSTDFYLIMEYCALGDLTFLLKRRKELMENHPLLRTVFEKYPPPSENHNGLHRAFVLSYLQQLASALKFLRSKNLVHRDIKPQNLLLSTPLIGYHDSKSFHELGFVGIYNLPILKIADFGFARFLPNTSLAETLCGSPLYMAPEILNYQKYNAKADLWSVGTVVFEMCCGTPPFRASNHLELFKKIKRANDVITFPSYCNIEPELKELICSLLTFDPAQRIGFEEFFANKVVNEDLSSYELEDDLPELESKSKGIVESNMFVSEYLSKQPKSPNSNLAGHQSMADNPAELSDALKNSNILTAPAVKTDHTQAVDKKASNNKYHNSLVSDRSFEREYVVVEKKSVEVNSLADEVAQAGFNPNPIKHPTSTQNQNVLLNEQFSPNNQQYFQNQGENPRLLRATSSSSGGSDGSRRPSLVDRRLSISSLNPSNALSRALGIASTRLFGGANQQQQQQQITSSPPYSQTLLNSQLFHELTENIILRIDHLQHPETLKLDNTNIVSILESLAAKAFVVYSYAEVKFSQIVPLSTTLKGMANFENRRSMDSNAIAEEQDSDDAEEEDETLKKYKEDCLSTKTFGKGRTLSATSQLSATFNKLPRSEMILLCNEAIVLYMKALSILSKSMQVTSNWWYESQEKSCSLRVNVLVQWLREKFNECLEKADFLRLKINDLRFKHASEVAENQTLEEKGSSEEPVYLEKLLYDRALEISKMAAHMELKGENLYNCELAYATSLWMLETSLDDDDFTNAYGDYPFKTNIHLKSNDVEDKEKYHSVLDENDRIIIRKYIDSIANRLKILRQKMNHQN
modifications: GST-His6 tag
notes: as for B1
B4: LYS1: yeast GST-HisX6 fusion protein on proteome chip (protein, UniProt P38998 2-373, looked up)
Saccharopine dehydrogenase …: AAVTLHLRAETKPLEARAALTPTTVKKLIAKGFKIYVEDSPQSTFNINEYRQAGAIIVPAGSWKTAPRDRIIIGLKEMPETDTFPLVHEHIQFAHCYKDQAGWQNVLMRFIKGHGTLYDLEFLENDQGRRVAAFGFYAGFAGAALGVRDWAFKQTHSDDEDLPAVSPYPNEKALVKDVTKDYKEALATGARKPTVLIIGALGRCGSGAIDLLHKVGIPDANILKWDIKETSRGGPFDEIPQADIFINCIYLSKPIAPFTNMEKLNNPNRRLRTVVDVSADTTNPHNPIPIYTVATVFNKPTVLVPTTAGPKLSVISIDHLPSLLPREASEFFSHDLLPSLELLPQRKTAPVWVRAKKLFDRHCARVKRSSRL
modifications: GST-HisX6 tag
notes: as for B1
B5: OPY1: yeast GST-HisX6 fusion protein on proteome chip (protein, UniProt P38271 1-328, looked up)
Pleckstrin homology domain …: MIAGATAPSSQHEILIASNLIKKPSTSQNKTPTAQSSSGNNGAADGAPQGYHHHHHHHRHLWWPRTTDHQYWCVLRKNQFAYYKTRDEREAISVIPRFDILNFKISELDGILTVYTPSKDLIFKFPRGQNEKVGMELMHNWKIALEKFLSSPSGNESVTTGSDYDEEEDDDDLIVVDEKAGPSSSKHSCSLTMDEQLSREDKEFYRMFDPRNAEHQVCSGILYTKVKKKKLFNRAKWQKFNVELTNTSFNLYSFKTGKLKKSIKLDKIIDCIELDNNSKMKNDDTNFALITFDERLSFKAANDQDMVDWIINFKSGILIRKKLKAENI
modifications: GST-His6 fusion tag
notes: as for B1
B6: AKL1: yeast GST-HisX6 fusion protein on proteome chip (protein, UniProt P38080 2-1108, looked up)
Serine/threonine-protein …: SITNGTSRSVSAMGHPAVERYTPGHIVCVGTHKVEVVNYLAEGGFAQIYVVKFLEYLNEFDNTASVPLKIGDVACLKRVLVQDENGLNEMRNEVEVMKKLKGAPNIVQYFDSNASRRRDGVQGFEVLLLMELCPNKSLLDYMNQRLSTKLTEAEIVKIMYDVALSISQMHYLPVSLIHRDIKIENVLVDAKNNFKLADFGSTSTCFPIVTTHQDIALLTQNIYVHTTPQYRSPEMIDLYRCLPINEKSDIWALGVFLYKLLFFTTPFEMTGQFAILHSKYEFPVNKYSSKLINLIIIMLAENPNLRPNIYQVLYHLCEILNVEVPIEDKYAEGAYNFSKYTQFQNKLQNVQLQMYQLQQKKIMQNNKLSDSEENLLNDMFLSSFEISSKLPMNASDGHAAVSRIPSQNVGQELEEEKESQSDQRKSTLSEDKSSRTTSNANSSGTANNPQEINTIQSPGIEDKSIFENKTPGELYYPSVSELDTYLDKELVKQSSDPTISEQSPRLNTQSLPQRQKSTSSYSSGGRSMKSTSYGAATIGSDEALANEKTAGINKMKQHKSNNPFPKMNVAYHSTNELSNDASNFFLEEQQQGQRYQQAQNQTGTQGNTFPDESQYQSRVEQQQQQQDQPKGPANYSQRNFYTGRDRSNKPMQLGGTIAGDSGNRRVNFQNISQNYATNSQSGYLPSQNSPAIPMVRPVISMNQQQAQQIQAQQLQAQQMQAKQQMQAKQQMQVQQQLQVQQQMQIQNANNNGTYVSDRTNHTTEDMRNAQGGEPPILAGNSANEPMHSSSKNEALLIELSPLKEDAGKQSFQDTNEPQTGGIEDAGGSGTIKGSNNNRNGVLNLSLNEMDLSRDDTGAAVSSFSSSSSSASIQQAKLSGRKGSSKRNNYSTDELGDSMVSSESIDIDLDDARRGKTAERRPLHNERGHKDQARSSDASKSNQFKSKDFSSVSTRQPRQSLDLNFQEVNLSSPTLTQEHRNKNDSPAPNSHHSYRVSPHASTAITENKRHSTGHELSTRSNGKHETHRTGSKQRHDLERYRHSKDKDSNSSITISTSTPSEMRKSFARARQSLDLERVRREAMASSASSSGGSNGKRRSFFSVFRSEK
modifications: GST-His6 tag
notes: as for B1
B7: MET8: yeast GST-HisX6 fusion protein on proteome chip (protein)
chain: MVKSLQLAHQLKDKKILLIGGGEVGLTRLYKLIPTGCKLTLVSPDLHKSIIPKFGKFIQNEDQPDYREDAKRFINPNWDPTKNEIYEYIRSDFKDEYLDLEDENDAWYIIMTCIPDHPESARIYHLCKERFGKQQLVNVADKPDLCDFYFGANLEIGDRLQILISTNGLSPRFGALVRDEIRNLFTQMGDLALEDAVVKLGELRRGIRLLAPDDKDVKYRMDWARRCTDLFGIQHCHNIDVKRLLDLFKVMFQEQNCSLQFPPRERLLSEYCSS
modifications: left off: a dimerising Fc or GST
notes: as for B1

Legend:
Details in all cases: liposome binding signal on yeast proteome chip, Cy3-streptavidin detection
[1] = system: phosphatidylcholine (PC) liposomes; test: Yeast proteome chip probed with PC liposomes
Method in brief: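 Signal comes from Cy3- or Cy5-streptavidin recognising 1% (w/w) biotin-DHPE carried in every liposome. Liposomes were PC alone or PC containing 5% (w/w) of a single phosphoinositide, applied to arrayed GST-fusion yeast proteins for 1 h at RT.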

PI(3,4,5)P3 liposomes = test: Yeast proteome chip probed with PI(3,4,5)P3 liposomes
PI(3,4)P2 liposomes = test: Yeast proteome chip probed with PI(3,4)P2 liposomes
PI(3)P liposomes = test: Yeast proteome chip probed with PI(3)P liposomes
PI(4,5)P2 liposomes = test: Yeast proteome chip probed with PI(4,5)P2 liposomes
PI(4)P liposomes = test: Yeast proteome chip probed with PI(4)P liposomes

Row | Molecule | PC [1] | PI(3, 4, 5)P3 (PI(3,4,5)P3 liposomes) | PI(3, 4)P2 (PI(3,4)P2 liposomes) | PI(3)P (PI(3)P liposomes) | PI(4, 5)P2 (PI(4,5)P2 liposomes) | PI(4)P (PI(4)P liposomes)
1 | B1 | −4.70 | −2.14 | 4.71 | 2.00 | 14.15 | 13.28
2 | B2 | 621.00 | 108.67 | 249.28 | 318.00 | 282.63 | 666.29
3 | B3 | 464.28 | 92.70 | 138.45 | 72.00 | 319.65 | 668.47
4 | B4 | 255.33 | 61.20 | 81.94 | 3.50 | 22.21 | 198.15
5 | B5 | 250.04 | 41.17 | 179.27 | 17.50 | 37.89 | 188.13
6 | B6 | 207.20 | 93.38 | 132.49 | 19.50 | 57.48 | 189.44
7 | B7 | 188.12 | 25.42 | 95.44 | 117.00 | 244.09 | 175.94
